# Starred links: 1 amine or outer side, 2 acyl side, 3 side chain; linkers in the order of their positions; H or OH if unused. Positions of bridges follow the written chain, without caps; N, C: chain ends. Non-standard residues stand in square brackets, D forms with d. Primed or numbered codes have the meaning given here. B5(4) = 2,2-bis(4-pentenyl)glycine = 2-amino-2-(pent-4-en-1-yl)hept-6-enoic acid (stitching residue), C=CCCCC(CCCC=C)(N[*:1])C(=O)[*:2]; B5(9) = 2-amino-2-(pent-4-en-1-yl)hept-6-enoic acid (2,2-bis(4-pentenyl)glycine), C=CCCCC(CCCC=C)(N[*:1])C(=O)[*:2]; 23FF = 2,3-difluoro-L-phenylalanine, O=C([C@H](Cc1cccc(F)c1F)N[*:1])[*:2]; Phe(3-CF3) = N[C@@H](Cc1cccc(C(F)(F)F)c1)C(=O)O; Phe(3,5-F2) = N[C@@H](Cc1cc(F)cc(F)c1)C(=O)O; Bta = N[C@@H](Cc1csc2ccccc12)C(=O)O; αAllylPro = C=CC[C@@]1(C(=O)O)CCCN1; S8 = C=CCCCCCC[C@](C)(N)C(=O)O
# T1: full-length beta-Catenin (Uniprot ID P35222) (Homo sapiens (Human), UniProt P35222 1-781)
# T1 construct: also called bCat; B-Catenin
# T1 sequence: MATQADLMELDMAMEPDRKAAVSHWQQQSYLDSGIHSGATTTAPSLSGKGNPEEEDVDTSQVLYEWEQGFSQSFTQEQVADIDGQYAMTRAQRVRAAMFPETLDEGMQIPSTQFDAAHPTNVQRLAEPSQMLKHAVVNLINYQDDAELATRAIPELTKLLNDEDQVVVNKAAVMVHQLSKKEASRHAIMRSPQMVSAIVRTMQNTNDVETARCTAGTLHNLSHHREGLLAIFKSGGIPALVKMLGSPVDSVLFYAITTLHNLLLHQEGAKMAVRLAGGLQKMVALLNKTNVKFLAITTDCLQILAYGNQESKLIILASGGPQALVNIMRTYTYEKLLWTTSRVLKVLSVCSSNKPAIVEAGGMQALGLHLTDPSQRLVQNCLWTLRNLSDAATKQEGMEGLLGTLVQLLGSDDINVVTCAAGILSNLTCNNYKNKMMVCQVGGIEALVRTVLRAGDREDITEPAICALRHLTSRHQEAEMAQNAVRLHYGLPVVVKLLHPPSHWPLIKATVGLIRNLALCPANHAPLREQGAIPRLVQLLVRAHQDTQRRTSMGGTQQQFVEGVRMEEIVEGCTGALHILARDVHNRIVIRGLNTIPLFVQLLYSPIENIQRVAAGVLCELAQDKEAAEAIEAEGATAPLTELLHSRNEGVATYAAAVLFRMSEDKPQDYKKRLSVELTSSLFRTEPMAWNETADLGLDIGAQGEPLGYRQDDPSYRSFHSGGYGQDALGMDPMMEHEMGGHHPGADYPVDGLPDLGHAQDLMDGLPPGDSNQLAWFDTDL
# Molecular target: T1, full-length beta-Catenin (Uniprot ID …)
# Experiment: fluorescence polarization competition; 10 nM full-length beta-catenin, competitor 10 nM 5FAM-TCF4(10-53)
# Description: The plate was incubated protected from light for 60 minutes at 20° C. prior to read. Reads were performed on a CLARIOstar plate reader (BMG Labtech) in duplicate, and data were fitted to a 1:1 binding model with hill slope using an in-house script. All provided concentrations are final concentrations.
row,Binder,EC50 [µM]
1,"Ac-[αAllylPro]DA[B5(4)]DDAA[Phe(3-CF3)]A[S8]F[Bta]Q-NH2 (staple 1-4, 4-11; not fully specified; printed as Ac-PL3-Asp-Ala-B5-Asp-Asp-Ala-Ala-3F3MeF-Ala-S8-Phe-BztA-Gln-NH2, Stapled peptide) [I-375]",3.01
2,"Ac-[αAllylPro]DA[B5(9)]DDAA[Phe(3-CF3)]Q[S8]F[Bta]Q-NH2 (staple 1-4, 4-11; not fully specified; printed as Ac-PL3-Asp-Ala-B5-Asp-Asp-Ala-Ala-3F3MeF-Gln-S8-Phe-BztA-Gln-NH2, Stapled peptide) [I-380]",0.552
3,"Ac-[αAllylPro]DA[B5(4)]DDAA[Phe(3-CF3)]A[S8]F[Bta]Q-NH2 (staple 1-4, 4-11; not fully specified; printed as Ac-PL3-Asp-Ala-B5-Asp-Asp-Ala-Ala-3F3MeF-Ala-S8-Phe-BztA-Gln-NH2, Stapled peptide) [I-376]",1.32
4,"Ac-[αAllylPro]DA[B5(9)]DDAA[Phe(3-CF3)]Q[S8]F[Bta]Q-NH2 (staple 1-4, 4-11; not fully specified; printed as Ac-PL3-Asp-Ala-B5-Asp-Asp-Ala-Ala-3F3MeF-Gln-S8-Phe-BztA-Gln-NH2, Stapled peptide) [I-379]",1.34
5,"Ac-[αAllylPro]DA[B5(4)]DDAA[Phe(3-CF3)]A[S8]F[Bta]Q-NH2 (staple 1-4, 4-11; not fully specified; printed as Ac-PL3-Asp-Ala-B5-Asp-Asp-Ala-Ala-3F3MeF-Ala-S8-Phe-BztA-Gln-NH2, Stapled peptide) [I-377]",1.32
6,"Ac-[αAllylPro]DA[B5(9)]DDAA[Phe(3-CF3)]Q[S8]F[Bta]Q-NH2 (staple 1-4, 4-11; not fully specified; printed as Ac-PL3-Asp-Ala-B5-Asp-Asp-Ala-Ala-3F3MeF-Gln-S8-Phe-BztA-Gln-NH2, Stapled peptide) [I-378]",1.34
7,"XDAXDNAAFVXFXQ (not fully specified; Ac-PL3-Asp-Ala-B5-Asp-Asn-Ala-Ala-Phe-Val-S8-3FF-BztA-Gln-NH2: N-terminal acetyl, C-terminal amide; non-natural PL3(1), B5(4), S8(11), 3FF(12), BztA(13); staples PL3-B5 and B5-S8, Stapled peptide) [I-381]",3.65

# Second part, the binder after the results:
row,EC50 [µM],Binder
1,3.43,"XDAXDHAAFVXFXQ (not fully specified; Ac-PL3-Asp-Ala-B5-Asp-His-Ala-Ala-Phe-Val-S8-3FF-BztA-Gln-NH2: N-terminal acetyl, C-terminal amide; non-natural PL3(1), B5(4), S8(11), 3FF(12), BztA(13); staples PL3-B5 and B5-S8, Stapled peptide) [I-396]"
2,5,"Ac-[αAllylPro]DA[B5(9)]DEAAFV[S8][23FF][Bta]Q-NH2 (staple 1-4, 4-11; also: earlier eluting HPLC isomer, E/Z not assigned, Stapled peptide) [I-388]"
3,2.06,"XDAXDNAAFVXFXQ (not fully specified; Ac-PL3-Asp-Ala-B5-Asp-Asn-Ala-Ala-Phe-Val-S8-3FF-BztA-Gln-NH2: N-terminal acetyl, C-terminal amide; non-natural PL3(1), B5(4), S8(11), 3FF(12), BztA(13); staples PL3-B5 and B5-S8, Stapled peptide) [I-382]"
4,5,"Ac-[αAllylPro]DA[B5(9)]DEAAFV[S8][Phe(3,5-F2)][Bta]Q-NH2 (staple 1-4, 4-11, Stapled peptide composition (olefin metathesis)) [I-394]"
5,3.42,"Ac-[αAllylPro]DA[B5(9)]DEAA[23FF]V[S8]F[Bta]Q-NH2 (staple 1-4, 4-11; also: earlier eluting HPLC isomer, E/Z not assigned, Stapled peptide) [I-390]"
6,5,"Ac-[αAllylPro]DA[B5(9)]DEAAFV[S8][23FF][Bta]Q-NH2 (staple 1-4, 4-11; also: later eluting HPLC isomer, E/Z not assigned, Stapled peptide) [I-389]"
7,1.91,"Ac-[αAllylPro]DA[B5(9)]DEAA[23FF]V[S8]F[Bta]Q-NH2 (staple 1-4, 4-11; also: later eluting HPLC isomer, E/Z not assigned, Stapled peptide) [I-391]"

# Reference: patent US20240116985A1 (published 2024)
